In patent US20180265552A1 (INSTITUT NATIONAL DE LA RECHERCHE AGRONOMIQUE, published 2018):

Biological target: TRCP VLP
Test: titration, native agarose gel mobility shift

B1: Nb23 fused to EGFP (VHH)
VHH: QVQLQESGGGSVQVGGSLRVACAASGDTFSGYLAAWFRQAPGKGREGVAAINSKRHTTSYADSVKGRFTISKDNADNIMYLEMNSLKPEDTAIYYCAAADAIGLAEYWSTPTLSAARYKYWGQGTQVTVSS
- molecular ratio between GFLV CP and Nb23:GFP at maximum mobility shift: ~1 Nb23:GFP per CP
